The text below walks through data of patent publication US20090238821A1 (Eli Lilly, published 2009).

Test [1] has as its target T1, β-amyloid peptide (1-42) conjugated to BSA (UniProt P05067 672-713, C-terminal Cys43 coupled to maleimide-activated bovine serum albumin).
T1 construct: domain: Aβ1-42; Coated on ELISA plates at 10 µg/mL; the carrier BSA is not written as a chain; also called Aβ1-42-BSA conjugate; Aβ1-42-Cys-BSA conjugate
The experiment in a line: competitive ELISA on Aβ1-42-BSA, competitor of biotinylated Mu266 (0.3 µg/ml), second set. The procedure:
(§1) The Aβ₁₋₄₂-BSA conjugate was prepared by dissolving 7.5 mg of Aβ₁₋₄₂-Cys₄₃(C-terminal cysteine Aβ₁₋₄₂, AnaSpec) in 500 μL of dimethylsulfoxide, and then immediately adding 1,500 μL of distilled water. Two (2) milligrams of maleimide-activated bovine serum albumin (Pierce) was dissolved in 200 μL of distilled water. The two solutions were combined, thoroughly mixed, and allowed to stand at room temperature for two (2) hours. A gel chromatography column was used to separate unreacted peptide from Aβ₁₋₄₂-Cys-BSA conjugate.
(§2) After washing the wells with phosphate buffered saline (PBS) containing 0.1% Tween 20 (Washing Buffer) using an ELISA plate washer, the wells were blocked by adding 300 μL of SuperBlock reagent (Pierce) per well. After 30 minutes of blocking, the wells were washed Washing Buffer and excess liquid was removed.
(§3) As a background control, 100 μl of ELISA Buffer was added. The ELISA plate was incubated at room temperature for 90 min. After washing the wells with Washing Buffer, 100 μl of 1 μg/ml HRP-conjugated streptavidin (Cat # 21124, Pierce) was added to each well. […] Absorbance was read at 415 nm. The absorbances were plotted against the log of the competitor concentration, curves were fit to the data points (using Prism) and the IC50 was determined for each antibody using methods well-known in the art.
Background: ELISA stands for enzyme-linked immunosorbent assay.

Test [2] addresses T1, β-amyloid peptide (1-42) conjugated to …. The experiment in a line: competitive ELISA on Aβ1-42-BSA, competitor of biotinylated Mu266 (0.3 µg/ml), first set. As to the method:
as §1, §2, §3

In the next test the target is T2, Amyloid-beta 1-42 (UniProt P05067 672-713).
T2 construct: domain: Amyloid-beta 1-42; Numbers 1-42 count on the Aβ peptide, not on the APP entry; also called Aβ42; Aβ1-42
Nature of the test: BIAcore, essentially as in Example 15.

Protocol for Amyloid-beta 1-42: Antibody affinity (KD=Kd/Ka) was determined using a BIAcore biosensor 2000 and data analyzed with BIAevaluation (v. 3.1) software. A capture antibody (rabbit anti-mouse) was coupled via free amine groups to carboxyl groups on flow cell 2 of a biosensor chip (CM5) using N-ethyl-N-dimethylaminopropyl carbodiimide and N-hydroxysuccinimide (EDC/NHS). A non-specific rabbit IgG was coupled to flow cell 1 as a background control. Monoclonal antibodies were captured to yield 300 resonance units (RU). […] To regenerate the chip, bound anti-Aβ antibody was eluted from the chip using a wash with glycine-HCl (pH 2). A control injection containing no amyloid-beta served as a control for baseline subtraction.

B1: humanized 266 antibody (antibody, human IgG1, kappa, V domains shown)
VH: EVQLVESGGGLVQPGGSLRLSCAASGFTFSRYSMSWVRQAPGKGLELVAQINSVGNSTYYPDTVKGRFTISRDNAKNTLYLQMNSLRAEDTAVYYCASGDYWGQGTLVTVSS
VL: DVVMTQSPLSLPVTLGQPASISCRSSQSLIYSDGNAYLHWFLQKPGQSPRLLIYKVSNRFSGVPDRFSGSGSGTDFTLKISRVEAEDVGVYYCSQSTHVPWTFGQGTKVEIKR
notes: Mature antibody expressed from pVk-Hu266 and pVg1-Hu266 in Sp2/0 cells (clone 1D9), purified on protein A; human kappa and gamma 1 constant regions; also called Hu266
Regarding B1, the IC50 in test [1] came out at 4 µg/mL; in test [2], 7.5 µg/mL. The same molecule returned a Kd with Amyloid-beta 1-42 of 4 pM.

By IC50 is commonly meant the point on the concentration scale where inhibition reaches its midpoint. Broadly, the Kd is the free concentration of one partner at which half of the binding sites on the other are occupied at equilibrium, for simple one-to-one binding. The low end stands for a tighter complex, the high end for a looser complex.
